The text below walks through data of article PMC7141649.

As a reminder, the Kd is the constant that tells how readily two partners part at equilibrium. Lower therefore signals tighter binding.

In this experiment the target is actin (coated on the BLI biosensor). In words: BLI; Octet RED, 25°C; APS biosensor coated with actin; rWLP (1 mM) in PBS pH 7.4 with 0.05% Tween 20 and 0.1% BSA; 300 s association, 120 s dissociation. (In general: In BLI a coated tip is dipped into the sample, and binding shifts an interference pattern.)

For the substance “recombinant whirlin-like protein (as used in biolayer interferometry) (natural protein)”, the Kd was found to be 193 nM.
